The supplement of paper PMC10567573

B1: RPS21 (parent)
chain: AEVSWEPGRREGCDICAGKAGCPI

Variants of: B1
Test: protein stability index of a GFP-peptide fusion (GPS, HEK-293T) (PSI 1-6); higher = more stable
Conditions: c terminus: a fixed tail appended
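Also: lentivirally expressed fusions sorted by FACS into six bins by GFP to DsRed ratio, PSI derived from sequencing read proportions per bin multiplied by bin number.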

Compared with AEVSWEPGRREGCDICLGKAGCPI [A17L], AEVSWEPGRREGCDICNGKAGCPI [A17N] is higher in protein stability index: 2.01 for the first, 3.45 for the second.

Compared with AEVSWEPGRREGCDICEGKAGCPI [A17E], AEVSWEPGRREGCDICVGKAGCPI [A17V] is lower in protein stability index: 3.78 for the first, 3.14 for the second.

Compared with AEVSWEPGRREGCDICRGKAGCPI [A17R], AEVSWEPGRREGCDICYGKAGCPI [A17Y] is higher in protein stability index: 2.97 for the first, 3.57 for the second.

First: AEVSWEPGRREGCDICSGKAGCPI [A17S]
Second: AEVSWEPGRREGCDICMGKAGCPI [A17M]
The protein stability index of the first is higher: 2.46 for the first, 2.29 for the second.

First: AEVSWEPGRREGCDICTGKAGCPI [A17T]
Second: AEVSWEPGRREGCDICCGKAGCPI [A17C]
The protein stability index of the first is higher: 3.58 for the first, 3.11 for the second.

Going from AEVSWEPGRREGCDICGGKAGCPI [A17G] to AEVSWEPGRREGCDICPGKAGCPI [A17P], the protein stability index rises from 3.38 to 3.72.

Going from AEVSWEPGRREGCDICHGKAGCPI [A17H] to AEVSWEPGRREGCDICFGKAGCPI [A17F], the protein stability index falls from 3.66 to 2.3.

First: AEVSWEPGRREGCDICIGKAGCPI [A17I]
Second: AEVSWEPGRREGCDICASKAGCPI [G18S]
The protein stability index of the first is lower: 2.59 for the first, 3.63 for the second.

Compared with AEVSWEPGRREGCDICAKKAGCPI [G18K], AEVSWEPGRREGCDICAHKAGCPI [G18H] is higher in protein stability index: 2.7 for the first, 2.97 for the second.

Compared with AEVSWEPGRREGCDICANKAGCPI [G18N], AEVSWEPGRREGCDICAIKAGCPI [G18I] is lower in protein stability index: 3.63 for the first, 2.24 for the second.

Compared with AEVSWEPGRREGCDICAPKAGCPI [G18P], AEVSWEPGRREGCDICAWKAGCPI [G18W] is lower in protein stability index: 3.47 for the first, 2.74 for the second.

First: AEVSWEPGRREGCDICAFKAGCPI [G18F]
Second: AEVSWEPGRREGCDICAMKAGCPI [G18M]
The protein stability index of the first is lower: 2.75 for the first, 3.06 for the second.

Compared with AEVSWEPGRREGCDICADKAGCPI [G18D], AEVSWEPGRREGCDICATKAGCPI [G18T] is lower in protein stability index: 4.25 for the first, 3.28 for the second.

First: AEVSWEPGRREGCDICAAKAGCPI [G18A]
Second: AEVSWEPGRREGCDICACKAGCPI [G18C]
The protein stability index of the first is higher: 3.08 for the first, 2.79 for the second.

Going from AEVSWEPGRREGCDICAYKAGCPI [G18Y] to AEVSWEPGRREGCDICAGGAGCPI [K19G], the protein stability index rises from 2.66 to 3.99.

First: AEVSWEPGRREGCDICAGMAGCPI [K19M]
Second: AEVSWEPGRREGCDICAGYAGCPI [K19Y]
The protein stability index of the first is higher: 2.48 for the first, 2.24 for the second.

Going from AEVSWEPGRREGCDICAGLAGCPI [K19L] to AEVSWEPGRREGCDICAGQAGCPI [K19Q], the protein stability index rises from 2.3 to 2.97.

Compared with AEVSWEPGRREGCDICAGNAGCPI [K19N], AEVSWEPGRREGCDICAGEAGCPI [K19E] is higher in protein stability index: 2 for the first, 4.29 for the second.

First: AEVSWEPGRREGCDICAGDAGCPI [K19D]
Second: AEVSWEPGRREGCDICAGWAGCPI [K19W]
The protein stability index of the first is higher: 4.29 for the first, 1.28 for the second.

Going from AEVSWEPGRREGCDICAGTAGCPI [K19T] to AEVSWEPGRREGCDICAGHAGCPI [K19H], the protein stability index falls from 2.62 to 2.13.

Going from AEVSWEPGRREGCDICAGIAGCPI [K19I] to AEVSWEPGRREGCDICAGFAGCPI [K19F], the protein stability index falls from 3.79 to 2.15.

Going from AEVSWEPGRREGCDICAGKAGNPI [C22N] to AEVSWEPGRREGCDICAGKAGHPI [C22H], the protein stability index falls from 2.96 to 2.9.

First: AEVSWEPGRREGCDICAGKAGFPI [C22F]
Second: AEVSWEPGRREGCDICAGKAGRPI [C22R]
The protein stability index of the first is lower: 2.28 for the first, 2.32 for the second.

Going from AEVSWEPGRREGCDICAGKAGYPI [C22Y] to AEVSWEPGRREGCDICAGKAGEPI [C22E], the protein stability index rises from 2.2 to 3.88.

Going from AEVSWEPGRREGCDICAGKAGDPI [C22D] to AEVSWEPGRREGCDICAGKAGMPI [C22M], the protein stability index falls from 3.66 to 3.11.

First: AEVSWEPGRREGCDICAGKAGWPI [C22W]
Second: AEVSWEPGRREGCDICAGKAGPPI [C22P]
The protein stability index of the first is lower: 2.82 for the first, 3.34 for the second.

Compared with AEVSWEPGRREGCDICAGKAGKPI [C22K], AEVSWEPGRREGCDICAGKALCPI [G21L] is higher in protein stability index: 2.99 for the first, 3.38 for the second.

Compared with AEVSWEPGRREGCDICAGKAICPI [G21I], AEVSWEPGRREGCDICAGKAYCPI [G21Y] is higher in protein stability index: 2.67 for the first, 3.56 for the second.

Going from AEVSWEPGRREGCDICAGKAMCPI [G21M] to AEVSWEPGRREGCDICAGKAQCPI [G21Q], the protein stability index rises from 3.01 to 4.18.

First: AEVSWEPGRREGCDICAGKADCPI [G21D]
Second: AEVSWEPGRREGCDICAGKAPCPI [G21P]
The protein stability index of the first is higher: 3.59 for the first, 3.35 for the second.

Compared with AEVSWEPGRREGCDICAGKANCPI [G21N], AEVSWEPGRREGCDICAGKAFCPI [G21F] is lower in protein stability index: 2.82 for the first, 2.13 for the second.

First: AEVSWEPGRREGCDICAGKAACPI [G21A]
Second: AEVSWEPGRREGCDICAGKARCPI [G21R]
The protein stability index of the first is higher: 3.26 for the first, 2.75 for the second.

Compared with AEVSWEPGRREGCDICAGKACCPI [G21C], AEVSWEPGRREGCDICAGKASCPI [G21S] is lower in protein stability index: 2.84 for the first, 2.59 for the second.

Compared with AEVSWEPGRREGCDIVAGKAGCPI [C16V], AEVSWEPGRREGCDIDAGKAGCPI [C16D] is lower in protein stability index: 3.67 for the first, 3.44 for the second.

Compared with AEVSWEPGRREGCDIWAGKAGCPI [C16W], AEVSWEPGRREGCDILAGKAGCPI [C16L] is higher in protein stability index: 1.6 for the first, 4 for the second.

Compared with AEVSWEPGRREGCDIFAGKAGCPI [C16F], AEVSWEPGRREGCDIKAGKAGCPI [C16K] is higher in protein stability index: 3.58 for the first, 3.86 for the second.

First: AEVSWEPGRREGCDITAGKAGCPI [C16T]
Second: AEVSWEPGRREGCDIYAGKAGCPI [C16Y]
The protein stability index of the first is lower: 2.97 for the first, 3.04 for the second.

First: AEVSWEPGRREGCDIIAGKAGCPI [C16I]
Second: AEVSWEPGRREGCDIRAGKAGCPI [C16R]
The protein stability index of the first is lower: 3.69 for the first, 4.22 for the second.

Going from AEVSWEPGRREGCDIQAGKAGCPI [C16Q] to AEVSWEPGRREGCDICAGKFGCPI [A20F], the protein stability index falls from 4.37 to 3.1.

Going from AEVSWEPGRREGCDICAGKLGCPI [A20L] to AEVSWEPGRREGCDICAGKYGCPI [A20Y], the protein stability index rises from 2.48 to 2.96.

First: AEVSWEPGRREGCDICAGKCGCPI [A20C]
Second: AEVSWEPGRREGCDICAGKEGCPI [A20E]
The protein stability index of the first is higher: 4.67 for the first, 2.36 for the second.

First: AEVSWEPGRREGCDICAGKKGCPI [A20K]
Second: AEVSWEPGRREGCDICAGKSGCPI [A20S]
The protein stability index of the first is lower: 1.5 for the first, 3.69 for the second.

First: AEVSWEPGRREGCDICAGKNGCPI [A20N]
Second: AEVSWEPGRREGCDICAGKIGCPI [A20I]
The protein stability index of the first is higher: 3.26 for the first, 2.53 for the second.

Compared with AEVSWEPGRREGCDICAGKTGCPI [A20T], AEVSWEPGRREGCDICAGKDGCPI [A20D] is lower in protein stability index: 3.75 for the first, 3.5 for the second.

Compared with AEVSWEPGRREGCDICAGKRGCPI [A20R], AEVSWEPGRREGCDICAGKHGCPI [A20H] is higher in protein stability index: 2.26 for the first, 3.25 for the second.

Compared with AEVSWEPGRREGCDICAGKPGCPI [A20P], AEVSWEPGRREGCDICAGKVGCPI [A20V] is lower in protein stability index: 3.34 for the first, 2.59 for the second.

First: AEVSWEPGRREGCDSCAGKAGCPI [I15S]
Second: AEVSWEPGRREGCDLCAGKAGCPI [I15L]
The protein stability index of the first is higher: 4.14 for the first, 2.43 for the second.
